Consider eight substances from US20140017234A1.

The target in experiment [1] is HIV-1 YU-2 Env (gp120) mutant N279K (HIV-1 strain YU-2) (UniProt P35961).
Experiment [2] deals with HIV-1 YU-2 Env (gp120) mutant A281T (HIV-1 strain YU-2) (UniProt P35961).
Experiment [3] has as its target HIV-1 YU-2 Env (gp120) mutant N279K (HIV-1 strain YU-2) (UniProt P35961). The source holds these as a separate data set.
Experiment [4] has as its target HIV-1 YU-2 Env (gp120) mutant N280D (HIV-1 strain YU-2) (UniProt P35961).
Experiment [5] has as its target HIV-1 YU-2 Env (gp120) mutant A281S (HIV-1 strain YU-2) (UniProt P35961).
The target of experiment [6] is HIV-1 YU-2 Env (gp120) mutant N280Y (HIV-1 strain YU-2) (UniProt P35961).
The target of experiment [7] is HIV-1 YU-2 Env (gp120) mutant N276S (HIV-1 strain YU-2) (UniProt P35961).
In experiment [8] the target is HIV-1 YU-2 Env (gp120) mutant T278A (HIV-1 strain YU-2) (UniProt P35961).
The target in experiment [9] is HIV-1 YU-2 Env (gp120) mutant N280Y (HIV-1 strain YU-2) (UniProt P35961). The source holds these as a separate data set.
In experiment [10] the target is HIV-1 YU-2 Env (gp120) mutant A281T (HIV-1 strain YU-2) (UniProt P35961). Put plainly: cell-based or functional assay.
In experiment [11] the target is clade A/E 93TH057-derived gp120 core (HIV-1 clade A/E strain 93TH057).
Experiment [12] has as its target HIV-1 YU-2 Env (gp120) mutant N280D (HIV-1 strain YU-2) (UniProt P35961). The source holds these as a separate data set.

Where “and” joins values, the source holds several entries; their conditions need not be identical. Equal values may be shown once. Read-outs that look alike come from different tables or passages of the source.

With “45-46m28 IgG (45-46m2 + HC W47T) (antibody)”, the IC50 (pseudovirus neutralization, TZM-bl cells) in [1] stood at 0.652 µg/mL; in [3] it was 0.65 µg/mL. The substance also yielded an IC50 (pseudovirus neutralization, TZM-bl cells), first of the two values given in experiment [2] of 0.1 µg/mL. The substance also gave an IC50 (pseudovirus neutralization, TZM-bl cells), second of the two values given in experiment [2] greater than 50 µg/mL.

Take “45-46m25 IgG (45-46m2 + HC W47I) (antibody)”: the IC50 (pseudovirus neutralization, TZM-bl cells) is 0.19 µg/mL in experiment [4] and 2.59 µg/mL in [1]. The substance also registered an IC50 (pseudovirus neutralization, TZM-bl cells), first of the two values given in experiment [2] of 0.1 µg/mL. The same substance came in with an IC50 (pseudovirus neutralization, TZM-bl cells), second of the two values given in [2] greater than 50 µg/mL.

“45-46m2 IgG (NIH45-46 with G54W in the heavy chain and S28Y in the light chain) (antibody)”: the IC50 (read off the curve) in experiment [5] worked out at 0.01 µg/mL. The IC50 (pseudovirus neutralization, TZM-bl cells) turned out to be 2.23 µg/mL in [6], 0.435 µg/mL in [4], 0.452 µg/mL with YU-2^N279H (HIV-1) and 2.23 µg/mL in experiment [9]. In addition, the IC50 (pseudovirus neutralization) was 0.006 µg/mL in experiment [7] and 0.001 µg/mL in [8]. In experiment [2], the IC50 (pseudovirus neutralization, TZM-bl cells), first of the two values given turned out to be 0.1 µg/mL. This substance also yielded an IC50 (pseudovirus neutralization, TZM-bl cells), second of the two values given in experiment [2] greater than 50 µg/mL. Further, the plateau of the in vitro neutralization curve in experiment [10] amounted to 50%.

For “45-46m2 Fab (NIH45-46 with G54W in the heavy chain and S28Y in the light chain)”, in experiment [11], the dissociation constant (Kd) is 51 nM and 57 nM.

With “45-46m7 IgG (45-46m2 + HC W47V) (antibody)”, in [5], the IC50 (read off the curve) stood at 0.01 µg/mL. Further, the IC50 (pseudovirus neutralization, TZM-bl cells) in [4] was determined as 0.139 µg/mL; in experiment [1], 2.41 µg/mL; with YU-2^N279H (HIV-1), 0.245 µg/mL; in [3], 2.41 µg/mL. Besides, the IC50 (pseudovirus neutralization) in experiment [7] was 0.003 µg/mL; in experiment [8], 0.001 µg/mL. This substance returned an IC50 (pseudovirus neutralization, TZM-bl cells), first of the two values given in experiment [2] of 0.1 µg/mL. Also, the IC50 (pseudovirus neutralization, TZM-bl cells), second of the two values given in [2] was greater than 50 µg/mL. In [10], this substance came in with a plateau of the in vitro neutralization curve of 50%.

NIH45-46 Fab: the Kd in experiment [11] is 221 nM and 178 nM.

Turning to NIH45-46^G54W IgG (antibody), the IC50 (pseudovirus neutralization) came out at 0.004 µg/mL in experiment [7] and 0.001 µg/mL in [8]. In [2], this substance displayed an IC50 (pseudovirus neutralization, TZM-bl cells), first of the two values given of 0.1 µg/mL. In addition, the IC50 (pseudovirus neutralization, TZM-bl cells), second of the two values given in experiment [2] is greater than 50 µg/mL. Besides, the IC50 (pseudovirus neutralization, TZM-bl cells) with YU-2^R456W (HIV-1) was 5.67 µg/mL; with YU-2^N279H (HIV-1), greater than 50 µg/mL; in [9] it was greater than 50 µg/mL; in [12], greater than 50 µg/mL; in experiment [3], greater than 50 µg/mL.

As to NIH45-46^G54W Fab, the Kd in experiment [11] is 62 nM and 72 nM.
